This passage reports protein production results from a protein production outcome set (Wang et al. 2014).

This data set can be described thus: label from the status in PepcDB records.
Regarding “MNNRKKNIQYLVYSKVIYRIGDVMFDFANNTFLAGLNPASLSLVAVYQSLESVIGVLFNLFGGVIADSFKRKKIIITTNILCGTACLVLSFLTKEQWLVYAIVLTNVILAFMSAFSSPSYKAFTKEIVKKDSISQLNSLLETTSTVIKVTVPMVAIFLYKLLGIHGVLLLDGLSFLIAALLISFILPVNDEVVIKEKVTIREIFNDLKIGFKYVYSHKSIFIITVLSALVNFFLAAYNLLLPYSNQMFGEISTGLYGTFLTAEAIGGFIGAILSGFVNKELSSMRLILFLSLSGLMLMLAPPFYIMFHNAIILALSPALFSLFLSIFNIQFFSLVQKDVDNDFLGRVFGIIFTITILFMPIGTGFFSVALNPNNSFNLFIIGSCITTLSLVFRILFKKYNIR”, the protein production entry is recorded as “failed”.
“MNNYVKVHQPLNVDLRTQKTQTKLYTVLERFYVEDRTFESISIKDLCEQARVSRATFYRHHKEIIQVIEVQILRTMQYFSLEFDQIILTKENIQRLILRTIQKNPLLFQVIFWSRAENIFIDVVSGEILRISLLKEVSFSDSKFMPNCFARMILSLAAEIQQSNKDYTNDQLVELIQEAARFLQK”: the protein production result was “not failed”.
Turning to “MNPAITPILLGLVAGITVTFGALTYIVVGRRLGRRGQGVLNALAGGVLAYLALETGHESAAYVEQFATRETLDSFLAGLMVTSIALLGTWLLLSYVERGYSTLVRAPPGLMVSLTVASALGLHNLGEGLAIAASLIEGKVSLAILFAVGFAIHNYTEGFPIAAPLAGEKKRTGLRTIIGLSLLAGLPVVPGAMVYYLGSNLPGLAIATLYTVAAASIVYAMLHINLSALSRLGGLSSPSFWSSLFLGIALAYVTESIILIAGLH”, the protein production result was “failed”.
For “MNPAPERTVMQHVRPLPYEADFTGFLSNTVAPRWMEALRIQRMRTCFPHFDSGAPQHLCIITETTVRYRKPVRYSDAIVGKAWLQSARYSRWIIAFSFAFEFSGLPAFEGRQAGTFIDPLEHHHHHH”, the protein production entry is “failed”.
Consider “MNPENWLLLRRVVRFGDTDAAGVMHFHQLFRWCHESWEESLESYGLNPADIFPGSRKSEVTPEVALPIIHCQADFRRPIHTGDALAMELRPERLNPNSFQVHFEFRCEEQIAAHALIRHLAINAQTRHRCALPEGIDRWLEASGVGKIGSI”, for which the protein production result is “not failed”.
Regarding “MNPFQNSFGGHIPQDVAGKQGENVIFIVYNLTDSPDTVDKVKDVCANFSAMIRSMRNRFPDMQFSCTMGFGADAWTRLFPDKGKPKELSTFSEIKGEKYTAVSTPGDLLFHIRAKQMGLCFEFASILDEKLKGAVVSVDETHGFRYMDGKAIIGFVDGTENPAVDENPYHFAVIGEEDADFAGGSYVFVQKYIHDMVAWNALPVEQQEKVIGRHKFNDVELSDEEKPGNAHNAVTNIGDDLKIVRANMPFANTSKGEYGTYFIGYASTFSTTRRMLENMFIGSPAGNTDRLLDFSTAITGTLFFVPSYDLLGELGE”, the protein production result is listed as “not failed”.
“MNPIEFWFDFSSGYAFFAAQRIEALAAELGRTVLWRPYMLGAAFSVTGARGLSSTPLKRDYAQRDWARIARQRGLTFRPPADHPHVALAATRAFYWIEAQSPDAATAFAQRVFDLYFSDRLDTASPEAVSRLGPEVGLEPEALLAGIADPALKETVRKIGEDAVARGIFGSPFFLVDDEPFWGWDRMEMMAEWIRTGGW”: the protein production result is reported as “not failed”.
As for “MNPITELLDATLWIGGVPILWREIIGNVFGLFSAWAGMRRIVWAWPIGIIGNALLFTVFMGGLFHTPQNLDLYGQAGRQIMFIIVSGYGWYQWSAAKRRALTPENAVAVVPRWASTKERAGIVIAAVVGTLSFAWIFQALGSWGPWADAWIFVGSILATYGMARGWTEFWLIWIAVDIVGVPLLLTAGYYPSAVLYLVYGAFVSWGFVVWLRVQKADKARALEAQESVTV”, the protein production entry is on record as “failed”.
Turning to “MNPKKLAFYLWLLLVAGGITAYFLYPDEINILFLEDLSEEYYYVALIIYFLLLSARGLTMIPSTPLLLAGVLTFDPLELFIVNMAGILSSSTIVYYFSKFLGFDSYFETKHGKYVRKIRRGLTDKELPVIVGWSFFPLVPTDLIVYVGSSLKIPLLKCLLGVFVGESVLNAFYIFSTNLILKL”, the protein production entry is listed as “failed”.
In the case of “MNPLDVWYNIKMNVKKQIFKGTLYAVVAGCMWGISGIFGQLFFRDYHGSPLWITSTRLTIAGIILLAMSFSRDHKRFFDVWKSKKNMPTLFLYVFGGVFSVQYFYYVAIQLSNSATATILQYTAPVFIMLYLLIFQRQVPKPKSVLFVILAMIGVFLLITDGNIKHLSISPLALVTGLLAGVAVVIYSIIPRPLLDKYGALNMTGWGMMLAGIACNIFYPVWRIDFRIEPLSIFYVLTISIVGTALAFLLLLRAFQLISPLVVSVATATEPLTSVFLSIPLFGLKLTPLELLGIVMVIVSVILLSKSEQA”, the protein production result is reported as “failed”.
